Test results reported in publication PMC4528709, “Determinants in HIV-2 Env and tetherin required for functional interaction” (Retrovirology, 2015).

Target: T1, GFP-tagged ROD10 Env_(Y707A) (HIV-2 (strain ROD10), UniProt P04577 20-858, Y707A)
T1 construct: Env protein of HIV-2 strain ROD10 with a point mutation that disrupts an endocytosis motif in the cytoplasmic tail (pROD10_(Y707A) Env); also called Y707A mutant; source: 293T, co-transfected (2 ug plasmid), in lysate; not shown: eGFP, C-terminal, kept
T1 sequence (looked up): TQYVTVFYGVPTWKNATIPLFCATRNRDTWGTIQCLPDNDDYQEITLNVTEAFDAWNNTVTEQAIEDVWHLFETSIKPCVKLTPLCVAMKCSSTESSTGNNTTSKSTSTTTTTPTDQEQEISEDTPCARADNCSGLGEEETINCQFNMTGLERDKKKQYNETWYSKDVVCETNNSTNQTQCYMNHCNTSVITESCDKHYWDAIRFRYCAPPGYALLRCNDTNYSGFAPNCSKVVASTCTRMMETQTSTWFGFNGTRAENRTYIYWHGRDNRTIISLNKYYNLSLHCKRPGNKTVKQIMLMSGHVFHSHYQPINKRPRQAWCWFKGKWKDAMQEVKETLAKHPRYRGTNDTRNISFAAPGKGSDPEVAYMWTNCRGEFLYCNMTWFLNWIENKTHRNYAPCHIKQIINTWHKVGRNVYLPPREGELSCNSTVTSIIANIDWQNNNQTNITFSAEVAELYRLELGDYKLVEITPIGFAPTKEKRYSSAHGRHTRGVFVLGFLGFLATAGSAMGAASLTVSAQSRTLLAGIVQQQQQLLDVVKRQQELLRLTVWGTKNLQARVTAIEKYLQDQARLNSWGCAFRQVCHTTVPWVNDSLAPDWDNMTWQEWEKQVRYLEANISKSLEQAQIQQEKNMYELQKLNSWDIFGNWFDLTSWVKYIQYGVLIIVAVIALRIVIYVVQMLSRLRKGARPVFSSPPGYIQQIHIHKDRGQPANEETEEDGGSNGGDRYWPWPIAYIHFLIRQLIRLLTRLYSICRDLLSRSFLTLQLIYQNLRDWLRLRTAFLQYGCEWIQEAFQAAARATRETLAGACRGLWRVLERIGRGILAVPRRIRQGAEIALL
Test: co-IP; quantification of tetherin immunoprecipitated by GFP-tagged Env, corrected for the cellular level of the Env protein, n = 3 experiments, data not shown
Details: partners not purified

B1: tetherin/BST-2 (natural protein)
chain: MASTSYDYCRVPMEDGDKRCKLLLGIGILVLLIIVILGVPLIIFTIKANSEACRDGLRAVMECRNVTHLLQQELTEAQKGFQDVEAQAATCNHTVMALMASLDAEKAQGQKKVEELEGEITTLNHKLQDASAEVERLRRENQVLSVRIADKKYYPSSQDSS
notes: tetherin/BST-2, human; untagged expression plasmid described in earlier work [20, 29, 38]; also called wild-type tetherin; source: 293T, co-transfected (200 ng plasmid), in lysate
efficiency at immunoprecipitating tetherin relative to the WT ROD10 Env: 67%
